Experimental data as given in patent US20200046796A1 (TECHNION RESEARCH AND DEVELOPMENT FOUNDATION, published 2020).
Blank lines part the entries; values can stand above or below the binder they belong to.

Columns and labels:
[1] = molecular target: recombinant mouse H3/H4 heterodimer, P62806
[2] = molecular target: T1, α-Catenin (endogenous, from HaCaT cells), P35221
T1 chain: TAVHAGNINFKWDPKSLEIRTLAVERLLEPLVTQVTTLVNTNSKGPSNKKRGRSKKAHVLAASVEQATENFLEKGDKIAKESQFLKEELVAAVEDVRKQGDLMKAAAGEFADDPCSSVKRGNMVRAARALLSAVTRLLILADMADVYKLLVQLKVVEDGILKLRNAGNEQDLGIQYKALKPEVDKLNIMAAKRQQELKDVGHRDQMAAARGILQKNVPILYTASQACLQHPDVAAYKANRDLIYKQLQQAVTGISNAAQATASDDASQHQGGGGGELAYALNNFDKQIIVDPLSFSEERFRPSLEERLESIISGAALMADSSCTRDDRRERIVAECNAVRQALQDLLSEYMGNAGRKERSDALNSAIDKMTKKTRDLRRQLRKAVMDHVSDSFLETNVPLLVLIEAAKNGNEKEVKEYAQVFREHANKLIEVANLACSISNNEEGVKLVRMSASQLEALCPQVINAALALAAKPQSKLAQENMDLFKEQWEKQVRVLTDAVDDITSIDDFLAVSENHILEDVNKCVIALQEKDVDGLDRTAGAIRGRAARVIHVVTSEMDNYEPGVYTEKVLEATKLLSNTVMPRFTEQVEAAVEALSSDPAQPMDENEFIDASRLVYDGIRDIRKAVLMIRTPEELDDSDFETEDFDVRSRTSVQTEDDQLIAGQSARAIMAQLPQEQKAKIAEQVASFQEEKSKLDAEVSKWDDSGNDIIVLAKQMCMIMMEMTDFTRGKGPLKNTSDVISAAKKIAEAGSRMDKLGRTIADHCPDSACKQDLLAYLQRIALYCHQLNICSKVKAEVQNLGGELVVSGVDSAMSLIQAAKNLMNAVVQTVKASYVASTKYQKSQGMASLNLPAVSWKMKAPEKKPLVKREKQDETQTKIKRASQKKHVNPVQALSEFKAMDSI

[3] = molecular target: T2, Recombinant human α-Catenin protein
T2 chain: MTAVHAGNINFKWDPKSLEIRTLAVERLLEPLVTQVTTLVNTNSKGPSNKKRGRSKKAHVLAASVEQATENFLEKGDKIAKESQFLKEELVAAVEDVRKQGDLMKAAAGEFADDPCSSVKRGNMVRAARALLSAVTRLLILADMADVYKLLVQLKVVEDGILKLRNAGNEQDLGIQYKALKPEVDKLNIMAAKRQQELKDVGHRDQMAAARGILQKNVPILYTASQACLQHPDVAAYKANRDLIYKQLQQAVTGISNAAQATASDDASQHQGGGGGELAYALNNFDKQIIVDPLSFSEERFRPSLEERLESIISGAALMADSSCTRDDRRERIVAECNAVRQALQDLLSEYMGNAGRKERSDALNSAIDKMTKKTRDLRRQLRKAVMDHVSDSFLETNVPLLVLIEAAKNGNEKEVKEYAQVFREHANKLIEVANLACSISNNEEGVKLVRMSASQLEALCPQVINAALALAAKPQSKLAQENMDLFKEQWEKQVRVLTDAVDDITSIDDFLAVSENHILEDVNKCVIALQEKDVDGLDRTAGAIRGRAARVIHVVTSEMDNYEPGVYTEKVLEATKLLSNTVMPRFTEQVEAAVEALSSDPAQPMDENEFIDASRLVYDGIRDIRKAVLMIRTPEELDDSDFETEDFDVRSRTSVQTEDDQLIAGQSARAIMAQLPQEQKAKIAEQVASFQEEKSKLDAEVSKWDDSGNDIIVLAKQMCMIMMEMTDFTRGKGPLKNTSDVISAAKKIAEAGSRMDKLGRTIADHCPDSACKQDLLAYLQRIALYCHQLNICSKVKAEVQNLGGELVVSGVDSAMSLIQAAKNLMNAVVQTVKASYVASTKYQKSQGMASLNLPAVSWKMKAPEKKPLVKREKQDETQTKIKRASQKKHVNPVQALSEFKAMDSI

[4] = molecular target: Yes associated protein 1 (YAP) (endogenous, from mouse dorsal skin) (mouse, UniProt P46938 1-488, limits assumed); test: co-immunoprecipitation of endogenous proteins from mouse skin, Western blot
Chain of Yes associated protein 1 (YAP) (endogenous, from mouse dorsal skin) (P46938 whole entry): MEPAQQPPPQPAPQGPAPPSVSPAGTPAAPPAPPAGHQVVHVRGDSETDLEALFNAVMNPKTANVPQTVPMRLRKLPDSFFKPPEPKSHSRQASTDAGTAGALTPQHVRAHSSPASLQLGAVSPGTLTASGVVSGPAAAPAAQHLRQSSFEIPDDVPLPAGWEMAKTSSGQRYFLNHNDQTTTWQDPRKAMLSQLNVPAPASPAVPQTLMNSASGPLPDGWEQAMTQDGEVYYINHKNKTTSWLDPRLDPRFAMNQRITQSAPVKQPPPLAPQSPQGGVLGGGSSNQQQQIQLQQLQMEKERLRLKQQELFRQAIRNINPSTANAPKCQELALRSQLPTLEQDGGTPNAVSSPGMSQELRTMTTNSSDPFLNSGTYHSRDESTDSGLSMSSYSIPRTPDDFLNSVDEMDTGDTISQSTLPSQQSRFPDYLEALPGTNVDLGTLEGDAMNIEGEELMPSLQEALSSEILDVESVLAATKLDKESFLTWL

B1: recombinant human active caspase-3 (protein)
chain: SGISLDNSYKMDYPEMGLCIIINNKNFHKSTGMTSRSGTDVDAANLRETFRNLKYEVRNKNDLTREEIVELMRDVSKEDHSKRSSFVCVLLSHGEEGIIFGTNGPVDLKKITNFFRGDRCRSLTGKPKLFIIQACRGTELDCGIETDSGVDDDMACHKIPVEADFLYAYSTAPGYYSWRNSKDGSWFIQSLCAMLKQYADKLEFMHILTRVNRKVATEFESFSFDATFHAKKQIPCIVSMLTKELYFYH
in vitro cleavage assay, Coomassie staining [1]: Caspase-3 was not able to cleave either histones H2A/H2B or H3/H4
cleavage in HaCaT protein lysate, Western blot with antibodies for the C and N termini of α-Catenin [2]: addition of cleaved Caspase-3 results in a major decrease in the level of full-length α-Catenin
release of 14-3-3 from α-Catenin pull-down complexes after in vitro cleavage, Western blot [2]: Caspase-3-mediated cleavage facilitates the release of 14-3-3 from α-Catenin
in vitro cleavage assay, SDS-electrophoresis and Coomassie staining [3]: a dramatic decrease in the levels of full length α-Catenin (FIG. 4M) (Caspase-3 cleaved α-Catenin), giving rise to two novel bands at a molecular weight of ˜14 kDa and ˜17 kDa

binding result [4]: no binding
B2: activated (cleaved) Caspase-3 (endogenous, from mouse dorsal skin) (enzyme, UniProt P70677 29-277, looked up)
chain: SGIYLDSSYKMDYPEMGICIIINNKNFHKSTGMSSRSGTDVDAANLRETFMGLKYQVRNKNDLTREDILELMDSVSKEDHSKRSSFVCVILSHGDEGVIYGTNGPVELKKLTSFFRGDYCRSLTGKPKLFIIQACRGTELDCGIETDSGTDEEMACQKIPVEADFLYAYSTAPGYYSWRNSKDGSWFIQSLCSMLKLYAHKLEFMHILTRVNRKVATEFESFSLDSTFHAKKQIPCIVSMLTKELYFYH
notes: also called CP3
